# Test results taken from patent US20020142347A1, “Biosensor” (BIOSENSOR ApS, priority 2000, published 2002).
# Where two headings read alike, the source gives them in different places.
# Columns and labels:
# [1] = Fluorescence response of the Phe-49_Cys49 badan derivative of bovine ACBP to ligands; type: binding; conditions: badan group exposed to the environment
# Description: Reference is made to FIG. 2. and FIG. 3. which depict the emission spectra of FACI24 and FACI53 titrated with increasing concentrations of CoA, C4-, C8-, C12-, C16- and C20-CoA esters. The addition of ligand and measurement of emission of FACI24 and FACI53 was performed as described in example 2. The increased addition of ligand to the mutated and modified proteins caused a proportional spectral change. The normal physiological binding profile was confirmed by direct binding studies using isoelectrical focusing as predicted in FIG. 4. […] The results clearly indicate that fluorescence emission at 470 nm may provide a measure for the concentration of free unbound long-chain(>C12)-acyl-CoA ester.
# The two sensors presented herein together act as high sensitivity sensors in the chain length range from C8-CoA to C20-CoA. […]
# Quantitative determination of binding affinities (KD) were performed by isothermal titration micro calorimetry as previously described (Faergeman et. al., 1996; Biochemistry 35, 14118-14126). Qualitative evaluation of relative binding affinities were determined by isoelectrical focusing using the Pharmacia Fast Gel system according to the prescriptions given by the manufacture. […] The fluorescence emission was measured on a SPEX FLOUROLOG (Industries Inc, Edison N.J., USA) with excitation at 400 nm and emission scan from 400 nm to 550 nm. […]
# [2] = Fluorescence titration emission spectra of FACI-46 (negative control); type: binding
# Text: The strategy behind the design of the mutants was based on the tertiary structure of the bovine ACBP/acyl-CoA complex. Both Met-24 and Ala-53 interact directly with the acyl-chain of the acyl-CoA ligand, interacting with the omega-methyl group of long acyl-chains. Positioning of an environmentally sensitive group in one of these positions would therefore be expected to create ligand sensitive probes. Met-46 which is located outside the hydrophobic binding pocket in the loop between helix 2 and 3 was chosen to serve as a negative control which should not be sensitive to ligand binding.
# Fluorescence titration emission spectra from 415 nm to 550 nm (excitation at 400 nm) were performed for CoA, C4:0-, C8:0-, C12:0-, C16:0-, and C20:0-CoA with all four mutated and badan modified proteins.
Molecule,Fluorescence response to addition of ligands [1],Emission spectra changes of FACI-46 with ligands (words) [2],Emission spectra changes of FACI-46 with ligands (words) ([2]; listed as FACI46)
"Phe-49_Cys49 badan derivative of bovine ACBP: Phe49 to Cys mutant of bovine ACBP labelled with badan, badan group exposed to the environment (conjugate, UniProt P07107 2-87, looked up, variant F49C, badan label, Phe49 to Cys mutant of bovine ACBP labelled with badan, badan group exposed to the environment) Acyl-CoA-binding protein: SQAEFDKAAEEVKHLKTKPADEEMLFIYSHYKQATVGDINTERPGMLDCKGKAKWDAWNELKGTSKEDAMKAYIDKVEELKKKYGI",did not respond to addition of any of the ligands,–,–
"FACI-46: badan derivative of M46C-bovine ACBP, negative control (conjugate, UniProt P07107 2-87, looked up, variant M46C, badan label, badan derivative of M46C-bovine ACBP, negative control) Acyl-CoA-binding protein: SQAEFDKAAEEVKHLKTKPADEEMLFIYSHYKQATVGDINTERPGCLDFKGKAKWDAWNELKGTSKEDAMKAYIDKVEELKKKYGI",–,did not show any emission spectra changes with any of the ligands,did not show changes in emission spectra with any of the tested ligands
